Measured values reported in PMC9357107.

Assays:
[1] = biological target: linker domain of human IGFBP2 (L-hIGFBP2; residues A97-C191) (human); test: NMR titration
[2] = biological target: insulin-like growth factor 1 (IGF-1) (human) (UniProt P05019); test: SPR
[3] = biological target: insulin-like growth factor 2 (IGF-2) (human) (UniProt P01344); test: SPR
UniProt P01344, sequence (P01344 25-91): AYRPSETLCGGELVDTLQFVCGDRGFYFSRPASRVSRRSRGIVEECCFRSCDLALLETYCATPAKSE

Substance | stoichiometry N [1] | Kd [2] [µM] | Kd [3] [µM]
insulin-like growth factor 1 (IGF-1) (from UniProt P05019 49-118) (ligand) | 1 | – | –
linker domain of human IGFBP2 (L-hIGFBP2; residues A97-C191) (domain or fragment) | – | 4.1 | 3.7
